Drawing on article PMC10397247, this text covers interaction score for two molecules.

In one assay the target is T1, O10.
T1 chain: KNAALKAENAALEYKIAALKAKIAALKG
The assay is described as follows: two-hybrid library CC0.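 Note: natural log of median RNA to DNA barcode read ratio; higher means stronger binding.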 The settings on record: mean of both orientations.

In a further assay the target is T2, O11.
T2 chain: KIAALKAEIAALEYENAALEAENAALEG
Nature of the assay: two-hybrid library CC0.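 Note: natural log of median RNA to DNA barcode read ratio; higher means stronger binding.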 Conditions: mean of both orientations.

The target in a further assay is T3, O12.
T3 chain: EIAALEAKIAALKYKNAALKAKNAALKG
Nature of the assay: two-hybrid library CC0.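 Note: natural log of median RNA to DNA barcode read ratio; higher means stronger binding.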 Conditions: mean of both orientations.

The next assay deals with T4, O13.
T4 chain: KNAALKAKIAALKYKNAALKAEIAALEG
Nature of the assay: two-hybrid library CC0.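 Note: natural log of median RNA to DNA barcode read ratio; higher means stronger binding.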 Conditions: mean of both orientations.

A further assay concerns the target T5, O14.
T5 chain: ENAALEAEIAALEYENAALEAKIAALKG
Nature of the assay: two-hybrid library CC0.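 Note: natural log of median RNA to DNA barcode read ratio; higher means stronger binding.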 The settings on record: mean of both orientations.

The next assay concerns the target T6, O15.
T6 chain: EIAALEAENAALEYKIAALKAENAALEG
The assay is described as follows: two-hybrid library CC0.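 Note: natural log of median RNA to DNA barcode read ratio; higher means stronger binding.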 The settings on record: mean of both orientations.

The next assay deals with T7, O16.
T7 chain: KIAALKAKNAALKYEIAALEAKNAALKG
The assay is described as follows: two-hybrid library CC0. The settings on record: mean of both orientations.

The next assay addresses T8, O2.
T8 chain: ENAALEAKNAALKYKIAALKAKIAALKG
The assay is described as follows: two-hybrid library CC0. Conditions: mean of both orientations.

For a further assay, the target named is T9, O3.
T9 chain: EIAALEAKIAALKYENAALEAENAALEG
Nature of the assay: two-hybrid library CC0. The settings on record: mean of both orientations.

The next assay concerns the target T10, O4.
T10 chain: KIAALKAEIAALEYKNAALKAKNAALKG
Nature of the assay: two-hybrid library CC0. Conditions: mean of both orientations.

The next assay deals with T11, O5.
T11 chain: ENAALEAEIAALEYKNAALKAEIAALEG
The assay is described as follows: two-hybrid library CC0. Conditions: mean of both orientations.

In the next assay the target is T12, O6.
T12 chain: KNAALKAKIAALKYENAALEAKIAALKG
Nature of the assay: two-hybrid library CC0. The settings on record: mean of both orientations.

A further assay addresses T13, O7.
T13 chain: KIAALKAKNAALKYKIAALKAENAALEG
Nature of the assay: two-hybrid library CC0. Conditions: mean of both orientations.

In the next assay the target is T14, O8.
T14 chain: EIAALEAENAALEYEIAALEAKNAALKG
The assay is described as follows: two-hybrid library CC0. Conditions: mean of both orientations.

Another assay concerns the target T15, O9.
T15 chain: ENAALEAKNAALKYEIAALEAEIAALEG
The assay is described as follows: two-hybrid library CC0. The settings on record: mean of both orientations.

For the next assay, the target named is T16, 4H1328-bA.
T16 chain: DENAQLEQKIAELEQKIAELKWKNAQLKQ
Nature of the assay: two-hybrid library CCNG1.

For a further assay, the target named is T17, 4H1369-bA.
T17 chain: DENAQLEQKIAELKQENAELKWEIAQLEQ
Nature of the assay: two-hybrid library CCNG1.

For the next assay, the target named is T18, 4H1446-bA.
T18 chain: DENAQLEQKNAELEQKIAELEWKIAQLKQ
The assay is described as follows: two-hybrid library CCNG1.

Another assay concerns the target T19, 4H1845-bA.
T19 chain: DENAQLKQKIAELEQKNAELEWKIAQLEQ
Nature of the assay: two-hybrid library CCNG1.

The next assay deals with T20, 4H2576-bA.
T20 chain: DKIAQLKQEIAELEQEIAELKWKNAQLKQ
Nature of the assay: two-hybrid library CCNG1.

The next assay addresses T21, 4H2610-bA.
T21 chain: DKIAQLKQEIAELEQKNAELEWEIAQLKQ
The assay is described as follows: two-hybrid library CCNG1.

For a further assay, the target named is T22, 4H2667-bA.
T22 chain: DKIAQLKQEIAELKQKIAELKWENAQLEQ
The assay is described as follows: two-hybrid library CCNG1.

The target in the next assay is T23, 4H2697-bA.
T23 chain: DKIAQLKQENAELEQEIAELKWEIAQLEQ
Nature of the assay: two-hybrid library CCNG1.

The next assay deals with T24, 4H3189-bA.
T24 chain: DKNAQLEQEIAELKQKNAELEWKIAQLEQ
Nature of the assay: two-hybrid library CCNG1.

Another assay deals with T25, 4H331-bA.
T25 chain: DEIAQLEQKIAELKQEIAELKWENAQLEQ
Nature of the assay: two-hybrid library CCNG1.

The target of another assay is T26, 4H346-bH.
T26 chain: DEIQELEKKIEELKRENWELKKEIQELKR
The assay is described as follows: two-hybrid library CCNG1.

For a further assay, the target named is T27, 4H3606-bA.
T27 chain: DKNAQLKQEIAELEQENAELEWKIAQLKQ
The assay is described as follows: two-hybrid library CCNG1.

Another assay deals with T28, 4H370-bA.
T28 chain: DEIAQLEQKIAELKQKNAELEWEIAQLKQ
Nature of the assay: two-hybrid library CCNG1.

For a further assay, the target named is T29, 4H3782-bA.
T29 chain: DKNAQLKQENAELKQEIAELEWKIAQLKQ
The assay is described as follows: two-hybrid library CCNG1.

The next assay deals with T30, 4H3843-bA.
T30 chain: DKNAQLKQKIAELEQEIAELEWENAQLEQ
The assay is described as follows: two-hybrid library CCNG1.

Another assay concerns the target T31, 4H4001-bA.
T31 chain: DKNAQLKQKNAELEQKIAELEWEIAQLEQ
Nature of the assay: two-hybrid library CCNG1.

A further assay deals with T32, 4H462-bA.
T32 chain: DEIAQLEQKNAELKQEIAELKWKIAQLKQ
Nature of the assay: two-hybrid library CCNG1.

Another assay concerns the target T33, 4H568-bA.
T33 chain: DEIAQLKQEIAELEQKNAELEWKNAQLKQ
The assay is described as follows: two-hybrid library CCNG1.

Another assay deals with T34, 4H607-bA.
T34 chain: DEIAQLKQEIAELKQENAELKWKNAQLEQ
Nature of the assay: two-hybrid library CCNG1.

Another assay deals with T35, 4H687-bA.
T35 chain: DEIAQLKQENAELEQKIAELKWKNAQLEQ
Nature of the assay: two-hybrid library CCNG1.

The target of another assay is T36, 4H72-bA.
T36 chain: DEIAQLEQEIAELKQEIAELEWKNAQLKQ
Nature of the assay: two-hybrid library CCNG1.

In a further assay the target is T37, 4H797-bA.
T37 chain: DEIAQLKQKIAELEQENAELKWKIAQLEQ
The assay is described as follows: two-hybrid library CCNG1.

A further assay addresses T38, 4H883-bA.
T38 chain: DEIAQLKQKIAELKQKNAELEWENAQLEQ
Nature of the assay: two-hybrid library CCNG1.

The target in a further assay is T39, 4H918-bA.
T39 chain: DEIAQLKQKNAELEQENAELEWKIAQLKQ
The assay is described as follows: two-hybrid library CCNG1.

The next assay concerns the target T40, 4H953-bA.
T40 chain: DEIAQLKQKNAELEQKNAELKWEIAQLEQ
The assay is described as follows: two-hybrid library CCNG1.

A further assay addresses T41, 4H967-bA.
T41 chain: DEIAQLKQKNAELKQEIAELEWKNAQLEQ
Nature of the assay: two-hybrid library CCNG1.

On to KNAALKAENAALEYKIAALKAKIAALKG [O10], for which the interaction score in the assay with O10 was -2.67; with O11, -2.65; with O12, -2.82; in the assay with O13, -2.76; with O14, -2.57; with O15, -2.76. Also, the interaction score with O16 is -2.56; with O2 it was -1.28; with O3, -2.6; in the assay with O4, -2.63; with O5, -1.82; with O6, -2.76. In addition, the interaction score is -2.72 in the assay with O7, -2.5 with O8 and 1.47 in the assay with O9.

Consider DENAQLEQKIAELEQKIAELKWKNAQLKQ [4H1328-bA], for which the interaction score with 4H1328-bA is 1.62; with 4H1369-bA, -0.903; with 4H1446-bA, 0.372; with 4H1845-bA, -0.257; with 4H2576-bA, 1.95; with 4H2610-bA, -0.633. For the same molecule, the interaction score with 4H2667-bA is 0.432; in the assay with 4H2697-bA it was 0.429; with 4H3189-bA it was -0.907; with 4H331-bA it was 1.02; in the assay with 4H346-bH, 0.114; with 4H3606-bA it was 0.221. Further, the interaction score with 4H370-bA is -0.958; with 4H3782-bA, 0.142; in the assay with 4H3843-bA, 1.8; in the assay with 4H4001-bA, 1.48; with 4H462-bA, -0.405; with 4H568-bA, -0.0125. The interaction score in the assay with 4H607-bA was -0.918; in the assay with 4H687-bA, -0.983; with 4H72-bA, 1.25; in the assay with 4H797-bA it was -1.68; in the assay with 4H883-bA it was -0.916; in the assay with 4H918-bA it was -0.412. The interaction score with 4H953-bA was -0.977; with 4H967-bA it was -0.292.
